Results: publication PMC12585912, “Solution structure of the Sox2 DNA-binding domain reveals conformational selection in DNA binding”

Molecular target: Sox2(24-118) DBD (UniProt P48431 24-118)
Assay: NMR titration; 0.5 M ionic strength; specific binding in slow exchange, nonspecific mode reduced; 20 mM Tris, 135 mM KCl, 15 mM NaCl, pH 7.3 (NMR: 10% D2O, 0.01% NaN3, 293 K; nanoDSF: 25 uM protein, 1 mM DTT in protein/DNA buffer, 288-368 K at 1 K/min)
Settings: protein: recombinant; tags: N-terminal T7-tag; blunt

Sequence of Sox2(24-118) DBD (P48431 24-118): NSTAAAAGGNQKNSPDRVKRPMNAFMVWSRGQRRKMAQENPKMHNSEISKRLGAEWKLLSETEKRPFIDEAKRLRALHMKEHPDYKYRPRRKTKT

B1: FGF4 DNA 13-mer (dsDNA)
DNA 1: ACTCTTTGTTCGA
DNA 2: TCGAACAAAGAGT
binding result: binds
